These results are taken from PMC11321312.

Test [1] addresses JGFN4 wild-type VHH (camelid (library from B cells of llamas and alpacas)). Description: crystal structure; crystals grown from the isolated monomeric species (~12 mg/ml) with 5-fold molar excess of fentanyl; sitting drop, ambient temperature.
For test [2] the target is unchanged. In words: crystal structure; crystals grown from the isolated (preformed) dimeric species (~12 mg/ml) with 5-fold molar excess of fentanyl; sitting drop, ambient temperature.
Test [3] concerns the target JGFN4 N76D VHH (camelid (library from B cells of llamas and alpacas)). Described as above.

B1: JGFN4 wild-type VHH (VHH)
VHH: QVQLVESGGGLAQAGGSLQLSCAASGSTSRVNAMGWYRQTPGKERELVAAIDRSGATVYSESVRGRFTISKNDAKNIVWLQMNNLTTEDTAVYYCRSGVLGSWGLGTQVTVSS
B1: the stoichiometry N in test [1] and in test [2] was 2 in each case.

B2: JGFN4 N76D VHH (VHH)
VHH: QVQLVESGGGLAQAGGSLQLSCAASGSTSRVNAMGWYRQTPGKERELVAAIDRSGATVYSESVRGRFTISKNDAKDIVWLQMNNLTTEDTAVYYCRSGVLGSWGLGTQVTVSS
In the case of B2, the stoichiometry N in test [3] is 2.

By stoichiometry N is commonly meant the number of molecules, sites or subunits per partner or assembly.
